Legend:
[1] = system: HeLa Kyoto; experiment: melting temperature (median over replicates), in situ; higher = more thermally stable
[2] = system: HeLa Kyoto; experiment: thermal stability score vs G1/S (z-score of summed log2 fold changes over temperatures); higher = more thermally stable than in G1/S
[3] = system: HeLa Kyoto; experiment: solubility in G1/S (NP-40 vs SDS abundance) (log2 ratio); higher = more soluble; details: cell cycle stage: G1/S
[4] = system: HeLa Kyoto; experiment: solubility change mitosis vs G1/S (difference of NP-40 vs SDS log2 ratios) (log2 ratio difference); higher = more soluble in mitosis
[5] = cell cycle stage: early G1 (4.5 h after nocodazole release)
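Wherever melting temperature (median over replicates), in situ is given: HeLa Kyoto cells synchronized by double thymidine or nocodazole block, proteins quantified by TMT10plex mass spectrometry, three independent biological replicates.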
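Wherever solubility change mitosis vs G1/S (difference of NP-40 vs SDS log2 ratios) is given: synchronized HeLa Kyoto cells (double thymidine block for G1/S, nocodazole release for mitosis), protein amounts in NP-40 versus SDS lysates quantified by mass spectrometry, three biological replicates.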
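Wherever solubility in G1/S (NP-40 vs SDS abundance) is given: HeLa Kyoto cells arrested at G1/S by double thymidine block, proteins quantified by TMT10plex mass spectrometry in mild NP-40 versus SDS extracts, three biological replicates.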
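Wherever thermal stability score vs G1/S (z-score of summed log2 fold changes over temperatures) is given: synchronized HeLa Kyoto cells, proteins quantified by TMT10plex mass spectrometry, three biological replicates, mitosis taken 0.5 h after nocodazole release, G1/S directly after double thymidine block.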

Row | Sequence | melting temperature ([1]; cell cycle stage: G1/S) | melting temperature ([1]; cell cycle stage: mitosis) | thermal stability score [2, 5] | thermal stability score ([2]; cell cycle stage: mitosis) | solubility in G1/S (log2) [3] | solubility change mitosis (log2) [4]
1 | MACPALGLEALQPLQPEPPPEPAFSEAQKWIEQVTGRSFGDKDFRTGLENGILLCELLNAIKPGLVKKINRLPTPIAGLDNIILFLRGCKELGLKESQLFDPSDLQDTSNRVTVKSLDYSRKLKNVLVTIYWLGKAANSCTSYSGTTLNLKEFEGLLAQMRKDTDDIESPKRSIRDSGYIDCWDSERSDSLSPPRHGRDDSFDSLDSFGSRSRQTPSPDVVLRGSSDGRGSDSESDLPHRKLPDVKKDDMSARRTSHGEPKSAVPFNQYLPNKSNQTAYVPAPLRKKKAEREEYRKSWSTATSPLGGERPFRYGPRTPVSDDAESTSMFDMRCEEEAAVQPHSRARQEQLQLINNQLREEDDKWQDDLARWKSRRRSVSQDLIKKEEERKKMEKLLAGEDGTSERRKSIKTYREIVQEKERRERELHEAYKNARSQEEAEGILQQYIERFTISEAVLERLEMPKILERSHSTEPNLSSFLNDPNPMKYLRQQSLPPPKFTATVETTIARASVLDTSMSAGSGSPSKTVTPKAVPMLTPKPYSQPKNSQDVLKTFKVDGKVSVNGETVHREEEKERECPTVAPAHSLTKSQMFEGVARVHGSPLELKQDNGSIEINIKKPNSVPQELAATTEKTEPNSQEDKNDGGKSRKGNIELASSEPQHFTTTVTRCSPTVAFVEFPSSPQLKNDVSEEKDQKKPENEMSGKVELVLSQKVVKPKSPEPEATLTFPFLDKMPEANQLHLPNLNSQVDSPSSEKSPVMTPQFKFWAWDPEEERRRQEKWQQEQERLLQERYQKEQDKLKEEWEKAQKEVEEEERRYYEEERKIIEDTVVPFTVSSSSADQLSTSSSMTEGSGTMNKIDLGNCQDEKQDRRWKKSFQGDDSDLLLKTRESDRLEEKGSLTEGALAHSGNPVSKGVHEDHQLDTEAGAPHCGTNPQLAQDPSQNQQTSNPTHSSEDVKPKTLPLDKSINHQIESPSERRKKSPREHFQAGPFSPCSPTPPGQSPNRSISGKKLCSSCGLPLGKGAAMIIETLNLYFHIQCFRCGICKGQLGDAVSGTDVRIRNGLLNCNDCYMRSRSAGQPTTL [LIMCH1] | 51.2 °C | 52 °C | 4.62 | 6.09 | 0.188 | -0.237
2 | MADAAPQLGKRKRELDVEEAHAASTEEKEAGVGNGTCAPVRLPFSGFRLQKVLRESARDKIIFLHGKVNEASGDGDGEDAVVILEKTPFQVEQVAQLLTGSPELQLQFSNDIYSTYHLFPPRQLNDVKTTVVYPATEKHLQKYLRQDLRLIRETGDDYRNITLPHLESQSLSIQWVYNILDKKAEADRIVFENPDPSDGFVLIPDLKWNQQQLDDLYLIAICHRRGIRSLRDLTPEHLPLLRNILHQGQEAILQRYRMKGDHLRVYLHYLPSYYHLHVHFTALGFEAPGSGVERAHLLAEVIENLECDPRHYQQRTLTFALRADDPLLKLLQEAQQS [DCPS] | 56.3 °C | 55.7 °C | -0.562 | -3.36 | 0.263 | -0.0249
3 | MADEALAGLDEGALRKLLEVTADLAERRRIRSAIRELQRQELEREEEALASKRFRAERQDNKENWLHSQQREAEQRAALARLAGQLESMNDVEELTALLRSAGEYEERKLIRAAIRRVRAQEIEAATLAGRLYSGRPNSGSREDSKGLAAHRLEQCEVPEREEQEQQAEVSKPTPTPEGTSQDVTTVTLLLRAPPGSTSSSPASPSSSPTPASPEPPLEPAEAQCLTAEVPGSPEPPPSPPKTTSPEPQESPTLPSTEGQVVNKLLSGPKETPAAQSPTRGPSDTKRADVAGPRPCQRSLSVLSPRQPAQNRESTPLASGPSSFQRAGSVRDRVHKFTSDSPMAARLQDGTPQAALSPLTPARLLGPSLTSTTPASSSSGSSSRGPSDTSSRFSKEQRGVAQPLAQLRSCPQEEGPRGRGLAARPLENRAGGPVARSEEPGAPLPVAVGTAEPGGSMKTTFTIEIKDGRGQASTGRVLLPTGNQRAELTLGLRAPPTLLSTSSGGKSTITRVNSPGTLARLGSVTHVTSFSHAPPSSRGGCSIKMEAEPAEPLAAAVEAANGAEQTRVNKAPEGRSPLSAEELMTIEDEGVLDKMLDQSTDFEERKLIRAALRELRQRKRDQRDKERERRLQEARGRPGEGRGNTATETTTRHSQRAADGSAVSTVTKTERLVHSNDGTRTARTTTVESSFVRRSENGSGSTMMQTKTFSSSSSSKKMGSIFDREDQASPRAGSLAALEKRQAEKKKELMKAQSLPKTSASQARKAMIEKLEKEGAAGSPGGPRAAVQRSTSFGVPNANSIKQMLLDWCRAKTRGYEHVDIQNFSSSWSDGMAFCALVHNFFPEAFDYGQLSPQNRRQNFEVAFSSAEMLVDCVPLVEVDDMMIMGKKPDPKCVFTYVQSLYNHLRRHELRLRGKNV [SMTN] | 48.9 °C | 50 °C | 0.326 | 0.869 | -0.058 | 0.208
4 | MADGEEPEKKRRRIEELLAEKMAVDGGCGDTGDWEGRWNHVKKFLERSGPFTHPDFEPSTESLQFLLDTCKVLVIGAGGLGCELLKNLALSGFRQIHVIDMDTIDVSNLNRQFLFRPKDIGRPKAEVAAEFLNDRVPNCNVVPHFNKIQDFNDTFYRQFHIIVCGLDSIIARRWINGMLISLLNYEDGVLDPSSIVPLIDGGTEGFKGNARVILPGMTACIECTLELYPPQVNFPMCTIASMPRLPEHCIEYVRMLQWPKEQPFGEGVPLDGDDPEHIQWIFQKSLERASQYNIRGVTYRLTQGVVKRIIPAVASTNAVIAAVCATEVFKIATSAYIPLNNYLVFNDVDGLYTYTFEAERKENCPACSQLPQNIQFSPSAKLQEVLDYLTNSASLQMKSPAITATLEGKNRTLYLQSVTSIEERTRPNLSKTLKELGLVDGQELAVADVTTPQTVLFKLHFTS [UBA3] | 51.8 °C | 51.5 °C | 1.23 | 1.76 | 0.115 | -0.178
5 | MADGKAGDEKPEKSQRAGAAGGPEEEAEKPVKTKTVSSSNGGESSSRSAEKRSAEEEAADLPTKPTKISKFGFAIGSQTTKKASAISIKLGSSKPKETVPTLAPKTLSVAAAFNEDEDSEPEEMPPEAKMRMKNIGRDTPTSAGPNSFNKGKHGFSDNQKLWERNIKSHLGNVHDQDN [PCNP] | 59.4 °C | 53.8 °C | -1.76 | -6.06 | 0.559 | 0.0732
6 | MADGPRCKRRKQANPRRNNVTNYNTVVETNSDSDDEDKLHIVEEESVTDAADCEGVPEDDLPTDQTVLPGRSSEREGNAKNCWEDDRKEGQEILGPEAQADEAGCTVKDDECESDAENEQNHDPNVEEFLQQQDTAVIFPEAPEEDQRQGTPEASGHDENGTPDAFSQLLTCPYCDRGYKRFTSLKEHIKYRHEKNEDNFSCSLCSYTFAYRTQLERHMTSHKSGRDQRHVTQSGCNRKFKCTECGKAFKYKHHLKEHLRIHSGEKPYECPNCKKRFSHSGSYSSHISSKKCISLIPVNGRPRTGLKTSQCSSPSLSASPGSPTRPQIRQKIENKPLQEQLSVNQIKTEPVDYEFKPIVVASGINCSTPLQNGVFTGGGPLQATSSPQGMVQAVVLPTVGLVSPISINLSDIQNVLKVAVDGNVIRQVLENNQANLASKEQETINASPIQQGGHSVISAISLPLVDQDGTTKIIINYSLEQPSQLQVVPQNLKKENPVATNSCKSEKLPEDLTVKSEKDKSFEGGVNDSTCLLCDDCPGDINALPELKHYDLKQPTQPPPLPAAEAEKPESSVSSATGDGNLSPSQPPLKNLLSLLKAYYALNAQPSAEELSKIADSVNLPLDVVKKWFEKMQAGQISVQSSEPSSPEPGKVNIPAKNNDQPQSANANEPQDSTVNLQSPLKMTNSPVLPVGSTTNGSRSSTPSPSPLNLSSSRNTQGYLYTAEGAQEEPQVEPLDLSLPKQQGELLERSTITSVYQNSVYSVQEEPLNLSCAKKEPQKDSCVTDSEPVVNVIPPSANPINIAIPTVTAQLPTIVAIADQNSVPCLRALAANKQTILIPQVAYTYSTTVSPAVQEPPLKVIQPNGNQDERQDTSSEGVSNVEDQNDSDSTPPKKKMRKTENGMYACDLCDKIFQKSSSLLRHKYEHTGKRPHECGICKKAFKHKHHLIEHMRLHSGEKPYQCDKCGKRFSHSGSYSQHMNHRYSYCKREAEERDSTEQEEAGPEILSNEHVGARASPSQGDSDERESLTREEDEDSEKEEEEEDKEMEELQEEKECEKPQGDEEEEEEEEEVEEEEVEEAENEGEEAKTEGLMKDDRAESQASSLGQKVGESSEQVSEEKTNEA [ZEB1] | 52.8 °C | 53.9 °C | -0.796 | 2.75 | -0.154 | -0.0271
7 | MADGSLTGGGLEAAAMAPERMGWAVEQELASLEKGLFQDEDSCSDCSYRDKPGSSLQSFMPEGKTFFPEIFQTNQLLFYERFRAYQDYILADCKASEVQEFTAEFLEKVLEPSGWRAVWHTNVFKVLVEITDVDFAALKAVVRLAEPYLCDSQVSTFTMECMKELLDLKEHRLPLQELWVVFDDSGVFDQTALAIEHVRFFYQNIWRSWDEEEEDEYDYFVRCVEPRLRLHYDILEDRVPSGLIVDYHNLLSQCEESYRKFLNLRSSLSNCNSDSEQENISMVEGLKLYSEMEQLKQKLKLIENPLLRYVFGYQKNSNIQAKGVRSSGQKITHVVSSTMMAGLLRSLLTDRLCQEPGEEEREIQFHSDPLSAINACFEGDTVIVCPGHYVVHGTFSIADSIELEGYGLPDDIVIEKRGKGDTFVDCTGADIKISGIKFVQHDAVEGILIVHRGKTTLENCVLQCETTGVTVRTSAEFLMKNSDLYGAKGAGIEIYPGSQCTLSDNGIHHCKEGILIKDFLDEHYDIPKISMVNNIIHNNEGYGVVLVKPTIFSDLQENAEDGTEENKALKIQTSGEPDVAERVDLEELIECATGKMELCARTDPSEQVEGNCEIVNELIAASTQKGQIKKKRLSELGITQADDNLMSQEMFVGIVGNQFKWNGKGSFGTFLF [SHCBP1] | 49 °C | 50.4 °C | 0.216 | 1.36 | -0.00275 | -0.188
8 | MADGVDHIDIYADVGEEFNQEAEYGGHDQIDLYDDVISPSANNGDAPEDRDYMDTLPPTVGDDVGKGAAPNVVYTYTGKRIALYIGNLTWWTTDEDLTEAVHSLGVNDILEIKFFENRANGQSKGFALVGVGSEASSKKLMDLLPKRELHGQNPVVTPCNKQFLSQFEMQSRKTTQSGQMSGEGKAGPPGGSSRAAFPQGGRGRGRFPGAVPGGDRFPGPAGPGGPPPPFPAGQTPPRPPLGPPGPPGPPGPPPPGQVLPPPLAGPPNRGDRPPPPVLFPGQPFGQPPLGPLPPGPPPPVPGYGPPPGPPPPQQGPPPPPGPFPPRPPGPLGPPLTLAPPPHLPGPPPGAPPPAPHVNPAFFPPPTNSGMPTSDSRGPPPTDPYGRPPPYDRGDYGPPGREMDTARTPLSEAEFEEIMNRNRAISSSAISRAVSDASAGDYGSAIETLVTAISLIKQSKVSADDRCKVLISSLQDCLHGIESKSYGSGSRRERSRERDHSRSREKSRRHKSRSRDRHDDYYRERSRERERHRDRDRDRDRERDREREYRHR [CPSF6] | 53 °C | 53.2 °C | -1.57 | -2.72 | -0.195 | 0.0573
9 | MADHSFSDGVPSDSVEAAKNASNTEKLTDQVMQNPRVLAALQERLDNVPHTPSSYIETLPKAVKRRINALKQLQVRCAHIEAKFYEEVHDLERKYAALYQPLFDKRREFITGDVEPTDAESEWHSENEEEEKLAGDMKSKVVVTEKAAATAEEPDPKGIPEFWFTIFRNVDMLSELVQEYDEPILKHLQDIKVKFSDPGQPMSFVLEFHFEPNDYFTNSVLTKTYKMKSEPDKADPFSFEGPEIVDCDGCTIDWKKGKNVTVKTIKKKQKHKGRGTVRTITKQVPNESFFNFFNPLKASGDGESLDEDSEFTLASDFEIGHFFRERIVPRAVLYFTGEAIEDDDNFEEGEEGEEEELEGDEEGEDEDDAEINPKV [NAP1L4] | 51.4 °C | 51.7 °C | 1.4 | 0.831 | 0.455 | -0.0294

Reference: the supplement of paper PMC5998384
